Laboratory results reported in paper PMC5680296, “Tsg101 chaperone function revealed by HIV-1 assembly inhibitors” (Nature Communications, 2017).

T1: Tsg101 UEV-N16 complex (UEV domain with N16 covalently attached at C73) (human, UniProt Q99816 2-145, C73 covalently attached (disulfide linkage) to the activated sulfenamide form of N16 (tenatoprazole))
T1 construct: non-native glycine at the N-terminus (residue 1) left by TEV protease cleavage; Tsg101, ubiquitin E2 variant (UEV) domain, residues 2-145, as m1; same polypeptide as m1; also called N16-Tsg101 UEV complex; Tsg101-N16; source: E. coli Rosetta 2 (DE3) pLysS, purified as m1, then incubated with N16 in a 10:1 ratio (N16 excess); not shown: His6, N-terminal, cleaved
T1 sequence: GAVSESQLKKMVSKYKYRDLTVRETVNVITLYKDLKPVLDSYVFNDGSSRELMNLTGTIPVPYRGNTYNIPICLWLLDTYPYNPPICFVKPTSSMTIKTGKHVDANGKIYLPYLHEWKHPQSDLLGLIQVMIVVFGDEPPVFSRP

B1: Tsg101 UEV domain (residues 2–145) (domain or fragment, human)
chain: GAVSESQLKKMVSKYKYRDLTVRETVNVITLYKDLKPVLDSYVFNDGSSRELMNLTGTIPVPYRGNTYNIPICLWLLDTYPYNPPICFVKPTSSMTIKTGKHVDANGKIYLPYLHEWKHPQSDLLGLIQVMIVVFGDEPPVFSRP
notes: non-native glycine at the N-terminus (residue 1) left by TEV protease cleavage; Tsg101, ubiquitin E2 variant (UEV) domain, residues 2-145; the word human is printed for the full-length Tsg101 plasmids, not for this construct itself; also called Tsg101^2–145; 15N-Tsg101 UEV; not shown: His6, N-terminal, cleaved

How the values were obtained:
Settings in all cases: both partners purified
wild-type ubiquitin = biological target: T2, wild-type ubiquitin (UniProt P0CG48 1-76); assay: NMR titration; HSQC spectra of 15N-labelled Tsg101 UEV or UEV-N16 (200 μM) at 1:0, 1:0.5 and 1:1 ratio to unlabeled ubiquitin; 20 mM potassium phosphate, 50 mM NaCl, pH 5.8
T2 construct: ubiquitin, wild type, unlabeled, encoded in pET-21a; source: E. coli BL21-Gold(DE3), purified (acid precipitation, HiTrap SP ion exchange, S75 gel filtration)

[1] = biological target: B1; assay: NMR titration; chemical shift perturbations of 15N-labelled Tsg101 UEV or UEV-N16 (200 μM) on addition of PTAP peptide at a final 1:1 ratio; 20 mM potassium phosphate, 50 mM NaCl, pH 5.8
[2] = biological target: T1, Tsg101 UEV-N16 complex (UEV domain with …); assay: as above

Binder	binding result (wild-type ubiquitin)	binding result [1]	binding result [2]
B1	binds		
Ac-NFLQSRPEPTAPPEE-NH2 (also called Gag PTAP peptide; source: synthetic peptide (Bio-Synthesis, Texas)) [PTAP peptide (Ace-NFLQSRPEPTAPPEE-CONH2)]		binds	binds
